Assay results: article PMC6383945, “Elk1 affects katanin and spastin proteins via differential transcriptional and post-transcriptional regulations”

Biological target: T1, Elk1-db (ETS DNA-binding domain) (Homo sapiens, UniProt P19419 1-96)
T1 sequence: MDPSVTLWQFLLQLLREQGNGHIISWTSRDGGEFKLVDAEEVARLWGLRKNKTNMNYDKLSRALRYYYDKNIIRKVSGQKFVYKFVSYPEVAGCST
Test: EMSA; 10 mM Tris pH 7.5, 50 mM KCl, 1 mM DTT, 1 ug poly(dI-dC), 5% glycerol, 1 mM EDTA, 0.3% BSA, protease inhibitors; 20 fmol probe, 300 ng Elk1-db; 20 min room temperature; 6% native PAGE in 0.5X TBE at 4 C
Details: protein: recombinant; tags: 6xHis; label: 3' biotin on both strands; blunt before labelling

B1: KATNA1 Promoter_WT (-428/-419) (dsDNA)
DNA 1: AGGGTGGAGATTGAGACTGGAGGAAGCCCTGTGCAGTACATAT
DNA 2: ATATGTACTGCACAGGGCTTCCTCCAGTCTCAATCTCCACCCT
B1: no binding.

B2: KATNA1 UTR2_Mut (dsDNA)
DNA 1: GACTGGGTCAGGCCCTCTCCTTCTATTGCCGGGATCTCCACTC
DNA 2: GAGTGGAGATCCCGGCAATAGAAGGAGAGGGCCTGACCCAGTC
B2: no binding.

B3: KATNA1 UTR1_WT (+113/+122) (dsDNA)
DNA 1: CGAGGTCGTCCCCGGCACCGGAAGTGACCCTGGCGGGTTTGT
DNA 2: ACAAACCCGCCAGGGTCACTTCCGGTGCCGGGGACGACCTCG
B3: binds.

B4: KATNA1 UTR2_WT (+253/+262) (dsDNA)
DNA 1: GACTGGGTCAGGCCCTCCTTCCTCGCTGCCGGGATCTCCACTC
DNA 2: GAGTGGAGATCCCGGCAGCGAGGAAGGAGGGCCTGACCCAGTC
B4: no binding.

B5: KATNA1 Promoter_Mut (dsDNA)
DNA 1: AGGGTGGAGATTGAGACCAAGAAGGACCCTGTGCAGTACATAT
DNA 2: ATATGTACTGCACAGGGTCCTTCTTGGTCTCAATCTCCACCCT
B5: no binding.

B6: KATNA1 UTR1_Mut (dsDNA)
DNA 1: CGAGGTCGTCCCCGGTGTTAAGGATGACCCTGGCGGGTTTGT
DNA 2: ACAAACCCGCCAGGGTCATCCTTAACACCGGGGACGACCTCG
B6: no binding.
